In article PMC12041195 (Nature Communications, 2025):

Biological target: trimeric HA protein of A/Victoria/361/2011 (H3N2) (Influenza A virus A/Victoria/361/2011 …, UniProt A0A097PF39, strain)
Assay: negative-stain electron microscopy

B1: IgM-F045-092 (antibody, V domains shown)
VH: EVQLVESGAEVKKPGSSVKVSCRASGTFYKYAINWVRQAPGQGLEWMGGIIPFFGTTNYAQKFQGRLTITADGSTNTAYMQLDSLRSEDTAVYYCAGPSITESHYCLDCAAKDYYYGLDVWGQGTTVTVSS
VL: not shown
- binding result: binds
